Measured values reported in patent US20240109972A1, “ANTIBODY AND TAXANE COMBINATION THERAPY” (Genmab A/S, priority 2020, published 2024).

Assay: GEN1046 in combination with docetaxel in metastatic NSCLC subjects, adverse effects
Format: in vivo, human
Protocol: Docetaxel was administered at a dose of 55 mg/m^2 or 75 mg/m^2 depending on the number of prior Dose Limiting Toxicities observed. The maximum tested dose of docetaxel was be 75 mg/m^2.
Subjects with a histological or cytological diagnosis of non-squamous NSCLC must not have an EGFR-sensitizing mutation and/or ALK translocation/ROS1 rearrangement. EGFR sensitizing mutations are those mutations that are amenable to treatment with an approved TKI. Documentation of EGFR and ALK status should be available per local assessment.

For “GEN1046: PD-L1×4-1BB bispecific antibody: PD-L1-547-FEAL combined with CD137-009-HC7LC2-FEAR (SEQ ID NOs: 1, 5, 21, 19; 8, 12, 22, 20)”, the “Tolerability of the combination” value (GEN1046 100 mg with Docetaxel 55 or 75 mg/m^2) was “manageable and well tolerated”, the “Alopecia Grade 1, GEN1046-related” value (GEN1046 + 55 mg/m^2 Docetaxel) was 1 and the “Alopecia Grade 2, GEN1046-related” value (GEN1046 + 55 mg/m^2 Docetaxel) was 0. The “Alopecia Grade 3, GEN1046-related” value (GEN1046 + 55 mg/m^2 Docetaxel) was 0, the “Alopecia Grade 4, GEN1046-related” value (GEN1046 + 55 mg/m^2 Docetaxel) was 0 and the “Alopecia Grade 5, GEN1046-related” value (GEN1046 + 55 mg/m^2 Docetaxel) was 0. For the same substance, the “Anemia Grade 1, GEN1046-related” value (GEN1046 + 55 mg/m^2 Docetaxel) was 0, the “Anemia Grade 2, GEN1046-related” value (GEN1046 + 55 mg/m^2 Docetaxel) was 0 and the “Anemia Grade 3, GEN1046-related” value (GEN1046 + 55 mg/m^2 Docetaxel) was 3. The “Anemia Grade 4, GEN1046-related” value (GEN1046 + 55 mg/m^2 Docetaxel) was 0, the “Anemia Grade 5, GEN1046-related” value (GEN1046 + 55 mg/m^2 Docetaxel) was 0 and the “Blood alkaline phosphatase increase Grade 1, GEN1046-related” value (GEN1046 + 55 mg/m^2 Docetaxel) was 0. For the same substance, the “Blood alkaline phosphatase increase Grade 2, GEN1046-related” value (GEN1046 + 55 mg/m^2 Docetaxel) was 1, the “Blood alkaline phosphatase increase Grade 3, GEN1046-related” value (GEN1046 + 55 mg/m^2 Docetaxel) was 0 and the “Blood alkaline phosphatase increase Grade 4, GEN1046-related” value (GEN1046 + 55 mg/m^2 Docetaxel) was 0. The “Blood alkaline phosphatase increase Grade 5, GEN1046-related” value (GEN1046 + 55 mg/m^2 Docetaxel) was 0, the “Decreased appetite Grade 1, GEN1046-related” value (GEN1046 + 55 mg/m^2 Docetaxel) was 0 and the “Decreased appetite Grade 2, GEN1046-related” value (GEN1046 + 55 mg/m^2 Docetaxel) was 1. The “Decreased appetite Grade 3, GEN1046-related” value (GEN1046 + 55 mg/m^2 Docetaxel) was 0, the “Decreased appetite Grade 4, GEN1046-related” value (GEN1046 + 55 mg/m^2 Docetaxel) was 0 and the “Decreased appetite Grade 5, GEN1046-related” value (GEN1046 + 55 mg/m^2 Docetaxel) was 0. For the same substance, the “Dyspnea Grade 1, GEN1046-related” value (GEN1046 + 55 mg/m^2 Docetaxel) was 0, the “Dyspnea Grade 2, GEN1046-related” value (GEN1046 + 55 mg/m^2 Docetaxel) was 1 and the “Dyspnea Grade 3, GEN1046-related” value (GEN1046 + 55 mg/m^2 Docetaxel) was 0. For the same substance, the “Dyspnea Grade 4, GEN1046-related” value (GEN1046 + 55 mg/m^2 Docetaxel) was 0, the “Dyspnea Grade 5, GEN1046-related” value (GEN1046 + 55 mg/m^2 Docetaxel) was 0 and the “Fatigue Grade 1, GEN1046-related” value (GEN1046 + 55 mg/m^2 Docetaxel) was 0. For the same substance, the “Fatigue Grade 2, GEN1046-related” value (GEN1046 + 55 mg/m^2 Docetaxel) was 2, the “Fatigue Grade 3, GEN1046-related” value (GEN1046 + 55 mg/m^2 Docetaxel) was 1 and the “Fatigue Grade 4, GEN1046-related” value (GEN1046 + 55 mg/m^2 Docetaxel) was 0. For the same substance, the “Fatigue Grade 5, GEN1046-related” value (GEN1046 + 55 mg/m^2 Docetaxel) was 0, the “Hypokalemia Grade 1, GEN1046-related” value (GEN1046 + 55 mg/m^2 Docetaxel) was 0 and the “Hypokalemia Grade 2, GEN1046-related” value (GEN1046 + 55 mg/m^2 Docetaxel) was 1. The “Hypokalemia Grade 3, GEN1046-related” value (GEN1046 + 55 mg/m^2 Docetaxel) was 0, the “Hypokalemia Grade 4, GEN1046-related” value (GEN1046 + 55 mg/m^2 Docetaxel) was 0 and the “Hypokalemia Grade 5, GEN1046-related” value (GEN1046 + 55 mg/m^2 Docetaxel) was 0. For the same substance, the “Hypomagnesaemia Grade 1, GEN1046-related” value (GEN1046 + 55 mg/m^2 Docetaxel) was 1, the “Hypomagnesaemia Grade 2, GEN1046-related” value (GEN1046 + 55 mg/m^2 Docetaxel) was 0 and the “Hypomagnesaemia Grade 3, GEN1046-related” value (GEN1046 + 55 mg/m^2 Docetaxel) was 0. For the same substance, the “Hypomagnesaemia Grade 4, GEN1046-related” value (GEN1046 + 55 mg/m^2 Docetaxel) was 0, the “Hypomagnesaemia Grade 5, GEN1046-related” value (GEN1046 + 55 mg/m^2 Docetaxel) was 0 and the “Nausea Grade 1, GEN1046-related” value (GEN1046 + 55 mg/m^2 Docetaxel) was 1. For the same substance, the “Nausea Grade 2, GEN1046-related” value (GEN1046 + 55 mg/m^2 Docetaxel) was 0, the “Nausea Grade 3, GEN1046-related” value (GEN1046 + 55 mg/m^2 Docetaxel) was 0 and the “Nausea Grade 4, GEN1046-related” value (GEN1046 + 55 mg/m^2 Docetaxel) was 0. For the same substance, the “Nausea Grade 5, GEN1046-related” value (GEN1046 + 55 mg/m^2 Docetaxel) was 0, the “Neutrophil count decreased Grade 1, GEN1046-related” value (GEN1046 + 55 mg/m^2 Docetaxel) was 0 and the “Neutrophil count decreased Grade 2, GEN1046-related” value (GEN1046 + 55 mg/m^2 Docetaxel) was 0. The “Neutrophil count decreased Grade 3, GEN1046-related” value (GEN1046 + 55 mg/m^2 Docetaxel) was 1, the “Neutrophil count decreased Grade 4, GEN1046-related” value (GEN1046 + 55 mg/m^2 Docetaxel) was 0 and the “Neutrophil count decreased Grade 5, GEN1046-related” value (GEN1046 + 55 mg/m^2 Docetaxel) was 0. For the same substance, the “Pyrexia Grade 1, GEN1046-related” value (GEN1046 + 55 mg/m^2 Docetaxel) was 1, the “Pyrexia Grade 2, GEN1046-related” value (GEN1046 + 55 mg/m^2 Docetaxel) was 0 and the “Pyrexia Grade 3, GEN1046-related” value (GEN1046 + 55 mg/m^2 Docetaxel) was 0. For the same substance, the “Pyrexia Grade 4, GEN1046-related” value (GEN1046 + 55 mg/m^2 Docetaxel) was 0, the “Pyrexia Grade 5, GEN1046-related” value (GEN1046 + 55 mg/m^2 Docetaxel) was 0 and the “Sinus tachycardia Grade 1, GEN1046-related” value (GEN1046 + 55 mg/m^2 Docetaxel) was 0. The “Sinus tachycardia Grade 2, GEN1046-related” value (GEN1046 + 55 mg/m^2 Docetaxel) was 1, the “Sinus tachycardia Grade 3, GEN1046-related” value (GEN1046 + 55 mg/m^2 Docetaxel) was 0 and the “Sinus tachycardia Grade 4, GEN1046-related” value (GEN1046 + 55 mg/m^2 Docetaxel) was 0. The “Sinus tachycardia Grade 5, GEN1046-related” value (GEN1046 + 55 mg/m^2 Docetaxel) was 0, the “Total treated subjects with related TEAEs Grade 1, GEN1046-related” value (GEN1046 + 55 mg/m^2 Docetaxel) was 4 and the “Total treated subjects with related TEAEs Grade 2, GEN1046-related” value (GEN1046 + 55 mg/m^2 Docetaxel) was 4. For the same substance, the “Total treated subjects with related TEAEs Grade 3, GEN1046-related” value (GEN1046 + 55 mg/m^2 Docetaxel) was 3, the “Total treated subjects with related TEAEs Grade 4, GEN1046-related” value (GEN1046 + 55 mg/m^2 Docetaxel) was 0 and the “Total treated subjects with related TEAEs Grade 5, GEN1046-related” value (GEN1046 + 55 mg/m^2 Docetaxel) was 0. The “Vaginal hemorrhage Grade 1, GEN1046-related” value (GEN1046 + 55 mg/m^2 Docetaxel) was 1, the “Vaginal hemorrhage Grade 2, GEN1046-related” value (GEN1046 + 55 mg/m^2 Docetaxel) was 0 and the “Vaginal hemorrhage Grade 3, GEN1046-related” value (GEN1046 + 55 mg/m^2 Docetaxel) was 0. The “Vaginal hemorrhage Grade 4, GEN1046-related” value (GEN1046 + 55 mg/m^2 Docetaxel) was 0, the “Vaginal hemorrhage Grade 5, GEN1046-related” value (GEN1046 + 55 mg/m^2 Docetaxel) was 0 and the “Vomiting Grade 1, GEN1046-related” value (GEN1046 + 55 mg/m^2 Docetaxel) was 0. The “Vomiting Grade 2, GEN1046-related” value (GEN1046 + 55 mg/m^2 Docetaxel) was 1, the “Vomiting Grade 3, GEN1046-related” value (GEN1046 + 55 mg/m^2 Docetaxel) was 0 and the “Vomiting Grade 4, GEN1046-related” value (GEN1046 + 55 mg/m^2 Docetaxel) was 0. For the same substance, the “Vomiting Grade 5, GEN1046-related” value (GEN1046 + 55 mg/m^2 Docetaxel) was 0, the “Amylase increased Grade 1, GEN1046-related” value (GEN1046 + 75 mg/m^2 Docetaxel) was 1 and the “Amylase increased Grade 2, GEN1046-related” value (GEN1046 + 75 mg/m^2 Docetaxel) was 0. For the same substance, the “Amylase increased Grade 3, GEN1046-related” value (GEN1046 + 75 mg/m^2 Docetaxel) was 0, the “Amylase increased Grade 4, GEN1046-related” value (GEN1046 + 75 mg/m^2 Docetaxel) was 0 and the “Amylase increased Grade 5, GEN1046-related” value (GEN1046 + 75 mg/m^2 Docetaxel) was 0. For the same substance, the “Anemia Grade 1, GEN1046-related” value (GEN1046 + 75 mg/m^2 Docetaxel) was 0, the “Anemia Grade 2, GEN1046-related” value (GEN1046 + 75 mg/m^2 Docetaxel) was 1 and the “Anemia Grade 3, GEN1046-related” value (GEN1046 + 75 mg/m^2 Docetaxel) was 0. The “Anemia Grade 4, GEN1046-related” value (GEN1046 + 75 mg/m^2 Docetaxel) was 0.
